# Laboratory results: patent publication US20150344570A1 (published 2015)
# T1: FcγRIIb (human, UniProt P31994 43-217)
# T1 construct: extracellular domain; also called FcgRIIb; 2b
# T1 sequence (looked up): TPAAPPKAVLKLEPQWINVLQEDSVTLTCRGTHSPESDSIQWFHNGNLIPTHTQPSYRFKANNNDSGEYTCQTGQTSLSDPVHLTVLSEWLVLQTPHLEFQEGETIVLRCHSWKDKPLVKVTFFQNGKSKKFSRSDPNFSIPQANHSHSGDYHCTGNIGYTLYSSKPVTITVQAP
# T2: FcγRIIb extracellular domain with C-terminal His tag (human, UniProt P31994 43-217)
# T2 construct: extracellular domain; Expressed in FreeStyle293 cells; analyte in the SPR assay; also called FcgRIIb; 2b
# T2 sequence (looked up): T1 sequence (looked up)
# B1: GpH7-A5/GpH7-B3 variant V266_20W/GpL16-k0 (antibody, human IgG1, kappa)
# heavy 1: not shown
# heavy 2: not shown
# light: DIVMTQSPLSLPVTPGEPASISCQASESLVHSNRNTYLHWYLQKPGQSPQLLIYKVSNRFSGVPDRFSGSGSGTDFTLKISRVEAEDVGVYYCSQNTHVPPTFGQGTKVEIERTVAAPSVFIFPPSDEQLKSGTASVVCLLNNFYPREAKVQWKVDNALQSGNSQESVTEQDSKDSTYSLSSTLTLSKADYEKHKVYACEVTHQGLSSPVTKSFNRGEC
# notes: mutation in the GpH7-B3 chain only; also called He Ab
# B2: GpH7-A5/GpH7-B3 variant D265_19Q/GpL16-k0 (antibody, human IgG1, kappa)
# heavy 1: not shown
# heavy 2: not shown
# light: B1 light
# notes: as for B1
# B3: GpH7-A5/GpH7-B3 variant D265_02A/GpL16-k0 (antibody, human IgG1, kappa)
# heavy 1: not shown
# heavy 2: not shown
# light: B1 light
# notes: as for B1
# B4: GpH7-A5/GpH7-B3 variant E269_01G/GpL16-k0 (He Ab) (antibody, human IgG1, kappa)
# heavy 1: not shown
# heavy 2: not shown
# light: B1 light
# notes: He Ab: mutation in one H chain only
# B5: GpH7-A5/GpH7-B3 variant E269_18N/GpL16-k0 (He Ab) (antibody, human IgG1, kappa)
# heavy 1: not shown
# heavy 2: not shown
# light: B1 light
# notes: as for B4
# B6: GpH7-A5/GpH7-B3 variant G236_02A/GpL16-k0 (He Ab) (antibody, human IgG1, kappa)
# heavy 1: not shown
# heavy 2: not shown
# light: B1 light
# notes: as for B4
# B7: GpH7-A5/GpH7-B3 variant E269_05P/GpL16-k0 (He Ab) (antibody, human IgG1, kappa)
# heavy 1: not shown
# heavy 2: not shown
# light: B1 light
# notes: as for B4
# B8: GpH7-A5/GpH7-B3 variant P271_07I/GpL16-k0 (He Ab) (antibody, human IgG1, kappa)
# heavy 1: not shown
# heavy 2: not shown
# light: B1 light
# notes: as for B4
# B9: GpH7-A5/GpH7-B3 variant E269_20W/GpL16-k0 (He Ab) (antibody, human IgG1, kappa)
# heavy 1: not shown
# heavy 2: not shown
# light: B1 light
# notes: as for B4
# B10: GpH7-A5/GpH7-B3 variant H268_04F/GpL16-k0 (He Ab) (antibody, human IgG1, kappa)
# heavy 1: not shown
# heavy 2: not shown
# light: B1 light
# notes: as for B4
# B11: GpH7-A5/GpH7-B3 variant E269_07I/GpL16-k0 (He Ab) (antibody, human IgG1, kappa)
# heavy 1: not shown
# heavy 2: not shown
# light: B1 light
# notes: as for B4
# B12: GpH7-A5/GpH7-B3 variant P271_02A/GpL16-k0 (He Ab) (antibody, human IgG1, kappa)
# heavy 1: not shown
# heavy 2: not shown
# light: B1 light
# notes: as for B4
# B13: GpH7-A5/GpH7-B3 variant E269_14T/GpL16-k0 (He Ab) (antibody, human IgG1, kappa)
# heavy 1: not shown
# heavy 2: not shown
# light: B1 light
# notes: as for B4
# B14: GpH7-A5/GpH7-B3 variant E269_16H/GpL16-k0 (He Ab) (antibody, human IgG1, kappa)
# heavy 1: not shown
# heavy 2: not shown
# light: B1 light
# notes: as for B4
# B15: GpH7-A5/GpH7-B3 variant P271_12R/GpL16-k0 (He Ab) (antibody, human IgG1, kappa)
# heavy 1: not shown
# heavy 2: not shown
# light: B1 light
# notes: as for B4
# B16: GpH7-A5/GpH7-B3 variant H268_14T/GpL16-k0 (He Ab) (antibody, human IgG1, kappa)
# heavy 1: not shown
# heavy 2: not shown
# light: B1 light
# notes: as for B4
# B17: GpH7-A5/GpH7-B3 variant H268_07I/GpL16-k0 (He Ab) (antibody, human IgG1, kappa)
# heavy 1: not shown
# heavy 2: not shown
# light: B1 light
# notes: as for B4
# B18: GpH7-A5/GpH7-B3 variant E269_06M/GpL16-k0 (He Ab) (antibody, human IgG1, kappa)
# heavy 1: not shown
# heavy 2: not shown
# light: B1 light
# notes: as for B4
# B19: GpH7-A5/GpH7-B3 variant E269_13S/GpL16-k0 (He Ab) (antibody, human IgG1, kappa)
# heavy 1: not shown
# heavy 2: not shown
# light: B1 light
# notes: as for B4
# B20: GpH7-A5/GpH7-B3 variant E269_19Q/GpL16-k0 (He Ab) (antibody, human IgG1, kappa)
# heavy 1: not shown
# heavy 2: not shown
# light: B1 light
# notes: as for B4
# B21: GpH7-A5/GpH7-B3 variant H268_06M/GpL16-k0 (He Ab) (antibody, human IgG1, kappa)
# heavy 1: not shown
# heavy 2: not shown
# light: B1 light
# notes: as for B4
# B22: GpH7-A5/GpH7-B3 variant E269_02A/GpL16-k0 (He Ab) (antibody, human IgG1, kappa)
# heavy 1: not shown
# heavy 2: not shown
# light: B1 light
# notes: as for B4
# B23: GpH7-A5/GpH7-B3 variant P271_06M/GpL16-k0 (He Ab) (antibody, human IgG1, kappa)
# heavy 1: not shown
# heavy 2: not shown
# light: B1 light
# notes: as for B4
# B24: GpH7-A5/GpH7-B3 variant H268_08L/GpL16-k0 (He Ab) (antibody, human IgG1, kappa)
# heavy 1: not shown
# heavy 2: not shown
# light: B1 light
# notes: as for B4
# B25: GpH7-A5/GpH7-B3 variant D265_10E/GpL16-k0 (He Ab) (antibody, human IgG1, kappa)
# heavy 1: not shown
# heavy 2: not shown
# light: B1 light
# notes: as for B4
# B26: GpH7-A5/GpH7-B3 variant L234_04F/GpL16-k0 (He Ab) (antibody, human IgG1, kappa)
# heavy 1: not shown
# heavy 2: not shown
# light: B1 light
# notes: as for B4
# B27: GpH7-A5/GpH7-B3 variant P271_11K/GpL16-k0 (He Ab) (antibody, human IgG1, kappa)
# heavy 1: not shown
# heavy 2: not shown
# light: B1 light
# notes: as for B4
# B28: GpH7-A5/GpH7-B3 variant E269_03V/GpL16-k0 (He Ab) (antibody, human IgG1, kappa)
# heavy 1: not shown
# heavy 2: not shown
# light: B1 light
# notes: as for B4
# B29: GpH7-A5/GpH7-B3 variant E269_08L/GpL16-k0 (He Ab) (antibody, human IgG1, kappa)
# heavy 1: not shown
# heavy 2: not shown
# light: B1 light
# notes: as for B4
# B30: GpH7-A5/GpH7-B3 variant P271_13S/GpL16-k0 (He Ab) (antibody, human IgG1, kappa)
# heavy 1: not shown
# heavy 2: not shown
# light: B1 light
# notes: as for B4
# B31: GpH7-A5/GpH7-B3 variant L234_15Y/GpL16-k0 (He Ab) (antibody, human IgG1, kappa)
# heavy 1: not shown
# heavy 2: not shown
# light: B1 light
# notes: as for B4
# B32: GpH7-A5/GpH7-B3 variant P271_04F/GpL16-k0 (He Ab) (antibody, human IgG1, kappa)
# heavy 1: not shown
# heavy 2: not shown
# light: B1 light
# notes: as for B4
# B33: GpH7-A5/GpH7-B3 variant H268_12R/GpL16-k0 (He Ab) (antibody, human IgG1, kappa)
# heavy 1: not shown
# heavy 2: not shown
# light: B1 light
# notes: as for B4
# B34: GpH7-A5/GpH7-B3 variant E269_04F/GpL16-k0 (He Ab) (antibody, human IgG1, kappa)
# heavy 1: not shown
# heavy 2: not shown
# light: B1 light
# notes: as for B4
# B35: GpH7-A5/GpH7-B3 variant P271_03V/GpL16-k0 (He Ab) (antibody, human IgG1, kappa)
# heavy 1: not shown
# heavy 2: not shown
# light: B1 light
# notes: as for B4
# B36: GpH7-A5/GpH7-B3 variant G236_20W/GpL16-k0 (He Ab) (antibody, human IgG1, kappa)
# heavy 1: not shown
# heavy 2: not shown
# light: B1 light
# notes: as for B4
# B37: GpH7-A5/GpH7-B3 variant E269_15Y/GpL16-k0 (He Ab) (antibody, human IgG1, kappa)
# heavy 1: not shown
# heavy 2: not shown
# light: B1 light
# notes: as for B4
# B38: GpH7-A5/GpH7-B3 variant H268_11K/GpL16-k0 (He Ab) (antibody, human IgG1, kappa)
# heavy 1: not shown
# heavy 2: not shown
# light: B1 light
# notes: as for B4
# Target: T1, FcγRIIb
# Test: SPR (Biacore), relative binding
row,He/Con_2b,Binder
1,71.9 % of GpH7-A5/GpH7-B3/GpL16-k0,B1
2,33.4 % of GpH7-A5/GpH7-B3/GpL16-k0,B2
3,19.9 % of GpH7-A5/GpH7-B3/GpL16-k0,B3

# Target: T3, FcγRIa extracellular domain with C-terminal His tag (human, UniProt P12314 16-292)
# T3 construct: extracellular domain; Expressed in FreeStyle293 cells; analyte in the SPR assay; also called FcgRI; 1a
# T3 sequence (P12314 16-292): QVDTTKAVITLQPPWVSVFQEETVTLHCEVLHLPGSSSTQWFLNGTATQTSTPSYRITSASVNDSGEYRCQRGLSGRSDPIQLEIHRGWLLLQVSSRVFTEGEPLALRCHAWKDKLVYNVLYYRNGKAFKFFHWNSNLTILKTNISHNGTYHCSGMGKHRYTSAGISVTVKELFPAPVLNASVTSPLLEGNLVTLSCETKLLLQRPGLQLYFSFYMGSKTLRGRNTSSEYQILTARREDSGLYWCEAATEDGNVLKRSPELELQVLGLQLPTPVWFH
# Test: SPR (Biacore), relative binding, HeCon Ab = 100
row,He/Con_1a,Binder
1,104 % of HeCon Ab (=100),B4
2,102 % of HeCon Ab (=100),B5
3,100 % of HeCon Ab (=100),B6
4,102 % of HeCon Ab (=100),B7
5,102 % of HeCon Ab (=100),B8
6,105 % of HeCon Ab (=100),B9
7,106 % of HeCon Ab (=100),B10
8,103 % of HeCon Ab (=100),B11
9,104 % of HeCon Ab (=100),B12
10,106 % of HeCon Ab (=100),B13
11,106 % of HeCon Ab (=100),B14
12,102 % of HeCon Ab (=100),B15
13,112 % of HeCon Ab (=100),B16
14,108 % of HeCon Ab (=100),B17
15,104 % of HeCon Ab (=100),B18
16,103 % of HeCon Ab (=100),B19
17,105 % of HeCon Ab (=100),B20
18,105 % of HeCon Ab (=100),B21

row,He/Con_1a,Binder
1,104 % of HeCon Ab (=100),B22
2,102 % of HeCon Ab (=100),B23
3,107 % of HeCon Ab (=100),B24
4,101 % of HeCon Ab (=100),B25
5,101 % of HeCon Ab (=100),B26
6,103 % of HeCon Ab (=100),B27
7,103 % of HeCon Ab (=100),B28
8,104 % of HeCon Ab (=100),B29
9,102 % of HeCon Ab (=100),B30
10,100 % of HeCon Ab (=100),B31
11,102 % of HeCon Ab (=100),B32
12,106 % of HeCon Ab (=100),B33
13,103 % of HeCon Ab (=100),B34
14,102 % of HeCon Ab (=100),B35
15,105 % of HeCon Ab (=100),B36
16,106 % of HeCon Ab (=100),B37
17,106 % of HeCon Ab (=100),B38

# Target: T2, FcγRIIb extracellular domain with …
# Test: SPR (Biacore), relative binding, HeCon Ab = 100
row,He/Con_2b,Binder
1,51.5 % of HeCon Ab (=100),B4
2,44.8 % of HeCon Ab (=100),B5
3,96.5 % of HeCon Ab (=100),B6
4,52.6 % of HeCon Ab (=100),B7
5,76.8 % of HeCon Ab (=100),B8
6,42.5 % of HeCon Ab (=100),B9
7,89.6 % of HeCon Ab (=100),B10
8,43.9 % of HeCon Ab (=100),B11
9,88 % of HeCon Ab (=100),B12
10,50.6 % of HeCon Ab (=100),B13
11,38.5 % of HeCon Ab (=100),B14
12,86.5 % of HeCon Ab (=100),B15
13,86 % of HeCon Ab (=100),B16
14,88.9 % of HeCon Ab (=100),B17
15,46.7 % of HeCon Ab (=100),B18
16,47.8 % of HeCon Ab (=100),B19
17,44.3 % of HeCon Ab (=100),B20
18,65.7 % of HeCon Ab (=100),B21

row,He/Con_2b,Binder
1,49.9 % of HeCon Ab (=100),B22
2,77.5 % of HeCon Ab (=100),B23
3,67.8 % of HeCon Ab (=100),B24
4,38.2 % of HeCon Ab (=100),B25
5,99.8 % of HeCon Ab (=100),B26
6,90.2 % of HeCon Ab (=100),B27
7,45.1 % of HeCon Ab (=100),B28
8,42.9 % of HeCon Ab (=100),B29
9,87.6 % of HeCon Ab (=100),B30
10,96.3 % of HeCon Ab (=100),B31
11,59.5 % of HeCon Ab (=100),B32
12,89.8 % of HeCon Ab (=100),B33
13,45 % of HeCon Ab (=100),B34
14,74.8 % of HeCon Ab (=100),B35
15,58.2 % of HeCon Ab (=100),B36
16,44.7 % of HeCon Ab (=100),B37
17,83 % of HeCon Ab (=100),B38
